Measurements published in paper PMC11714219.

B1: Estrogen receptor alpha, full length, ECFP-tagged, as in the ER βα FL biosensors with the linker [not stated] / Estrogen receptor beta (ER β), full length, mNeonGreen-tagged, as in the ER βα FL FRET biosensor [not stated] (parent)
chain 1: MTMTLHTKASGMALLHQIQGNELEPLNRPQLKIPLERPLGEVYLDSSKPAVYNYPEGAAYEFNAAAAANAQVYGQTGLPYGPGSEAAAFGSNGLGGFPPLNSVSPSPLMLLHPPPQLSPFLQPHGQQVPYYLENEPSGYTVREAGPPAFYRPNSDNRRQGGRERLASTNDKGSMAMESAKETRYCAVCNDYASGYHYGVWSCEGCKAFFKRSIQGHNDYMCPATNQCTIDKNRRKSCQACRLRKCYEVGMMKGGIRKDRRGGRMLKHKRQRDDGEGRGEVGSAGDMRAANLWPSPLMIKRSKKNSLALSLTADQMVSALLDAEPPILYSEYDPTRPFSEASMMGLLTNLADRELVHMINWAKRVPGFVDLTLHDQVHLLECAWLEILMIGLVWRSMEHPGKLLFAPNLLLDRNQGKCVEGMVEIFDMLLATSSRFRMMNLQGEEFVCLKSIILLNSGVYTFLSSTLKSLEEKDHIHRVLDKITDTLIHLMAKAGLTLQQQHQRLAQLLLILSHIRHMSNKGMEHLYSMKCKNVVPLYDLLLEMLDAHRLHAPTSRGGASVEETDQSHLATAGSTSSHSLQKYYITGEAEGFPATV
chain 2: MDIKNSPSSLNSPSSYNCSQSILPLEHGSIYIPSSYVDSHHEYPAMTFYSPAVMNYSIPSNVTNLEGGPGRQTTSPNVLWPTPGHLSPLVVHRQLSHLYAEPQKSPWCEARSLEHTLPVNRETLKRKVSGNRCASPVTGPGSKRDAHFCAVCSDYASGYHYGVWSCEGCKAFFKRSIQGHNDYICPATNQCTIDKNRRKSCQACRLRKCYEVGMVKCGSRRERCGYRLVRRQRSADEQLHCAGKAKRSGGHAPRVRELLLDALSPEQLVLTLLEAEPPHVLISRPSAPFTEASMMMSLTKLADKELVHMISWAKKIPGFVELSLFDQVRLLESCWMEVLMMGLMWRSIDHPGKLIFAPDLVLDRDEGKCVEGILEIFDMLLATTSRFRELKLQHKEYLCVKAMILLNSSMYPLVTATQDADSSRKLAHLLNAVTDALVWVIAKSGISSQQQSMRLANLLMLLSHVRHASNKGMEHLLNMKCKNVVPVYDLLLEMLNAHVLRGCKSSITGSECSPAEDSKSKEGSQNPQSQ

Variants of: B1
Assay: live-cell FRET biosensor imaging (ER βα heterodimerization, FRET/ECFP emission ratio)
Settings: with Estrogen receptor beta (ER β), 1 µM 17β-estradiol, value read at the end of the time course (30 min after E2), α mutant n = 12, WT n = 24, read off a plot, scale: R/R0

Row | Variant | response
1 | chain 1 MTMTLHTKASGMALLHQIQGNELEPLNRPQLKIPLERPLGEVYLDSSKPAVYNYPEGAAYEFNAAAAANAQVYGQTGLPYGPGSEAAAFGSNGLGGFPPLNSVSPSPLMLLHPPPQLSPFLQPHGQQVPYYLENEPSGYTVREAGPPAFYRPNSDNRRQGGRERLASTNDKGSMAMESAKETRYCAVCNDYASGYHYGVWSCEGCKAFFKRSIQGHNDYMCPATNQCTIDKNRRKSCQACRLRKCYEVGMMKGGIRKDRRGGRMLKHKRQRDDGEGRGEVGSAGDMRAANLWPSPLMIKRSKKNSLALSLTADQMVSALLDAEPPILYSEYDPTRPFSEASMMGLLTNLADRELVHMINWAKRVPGFVDLTLHDQVHLLECAWLEILMIGLVWRSMEHPGKLLFAPNLLLDRNQGKCVEGMVEIFDMLLATSSRFRMMNLQGEEFVCLKSIILLNSGVYTFLSSTLKSLEEKDHIHRVLDKITDTLIHLMAKAGLTLQQQHQRLAQRLLILSHIRHMSNKGMEHLYSMKCKNVVPLYDLLLEMLDAHRLHAPTSRGGASVEETDQSHLATAGSTSSHSLQKYYITGEAEGFPATV [chain 1 L507R] | 1.07
